In assay [1] the target is T1, cynomolgus CD3 (cynomolgus monkey, UniProt Q95LI5 22-198).
T1 construct: also called CD3 on the cynomolgus T-cell line HSC-F; cynomolgus CD3ε (epsilon)
Nature of the assay: flow cytometry on HSC-F cells, FIG. 2A. How it is done: (§1) In addition to the non-activating mutations, LFLEDA, the antibody variants contained F405L or K409R mutations as described in Example 1.
(§2) Cells (1×10⁵ cells/well) were incubated in polystyrene 96-well round-bottom plates (Greiner bio-one 650101) with serial dilutions of antibody preparations (range 5 to 10,000 ng/mL in 3-fold dilutions) in 100 μL PBS/0.1% BSA/0.02% azide at 4° C. for 30 min.
(§3) After washing twice in PBS/0.1% BSA/0.02% azide, cells were incubated in 100 μL with secondary antibody at 4° C. for 30 min. As a secondary antibody, R-Phycoerythrin (PE)-conjugated goat-anti-human IgG F(ab′)2 (109-116-098, Jackson ImmunoResearch Laboratories, Inc., West Grove, Pa.) diluted 1/100 in PBS/0.1% BSA/0.02% azide, was used for all experiments. Next, cells were washed twice in PBS/0.1% BSA/0.02% azide, re-suspended in 150 μL PBS/0.1% BSA/0.02% azide and analyzed on a FACS Cantoll (BD Biosciences). Binding curves were analyzed using non-linear regression (sigmoidal dose-response with variable slope) using GraphPad Prism V 5.04 software (GraphPad Software, San Diego, Calif., USA).

In assay [2] the target is T1, cynomolgus CD3. Put plainly: flow cytometry on HSC-F cells, FIG. 7B. As for the experimental part:
as §1, §2, §3
In general terms: In flow cytometry, cells or beads pass a laser one at a time.

Assay [3] deals with T1, cynomolgus CD3. Nature of the assay: flow cytometry on HSC-F cells, FIG. 7A. How it is done: as §1, §2, §3

T1 sequence (Q95LI5 22-198): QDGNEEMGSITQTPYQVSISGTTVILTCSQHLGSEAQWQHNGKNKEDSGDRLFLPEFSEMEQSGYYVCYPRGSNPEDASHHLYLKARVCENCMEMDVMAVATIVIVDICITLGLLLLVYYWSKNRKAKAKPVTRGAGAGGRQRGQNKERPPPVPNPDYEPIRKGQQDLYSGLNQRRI

B1: IgG1-huCD3-H1L1 (antibody, V domains shown)
VH: EVKLVESGGGLVQPGGSLRLSCAASGFTFNTYAMNWVRQAPGKGLEWVARIRSKYNNYATYYADSVKDRFTISRDDSKSSLYLQMNNLKTEDTAMYYCVRHGNFGNSYVSWFAYWGQGTLVTVSS
VL: not shown
notes: IgG1,λ with wild-type Fc region
Turning to B1, the binding result with cynomolgus CD3 [1] was “binds”.

B2: IgG1-huCD3-H3L3 (antibody, V domains shown)
VH: EVKLVESGGGLVKPGRSLRLSCAASGFTFNTYAMNWVRQAPGKGLEWVARIRSKYNNYATYYADSVKDRFTISRDDSKSILYLQMNSLKTEDTAMYYCVRHGNFGNSYVSWFAYWGQGTLVTVSS
VL: QAVVTQEPSFSVSPGGTVTLTCRSSTGAVTTSNYANWVQQTPGQAFRGLIGGTNKRAPGVPARFSGSILGNKAALTITGAQADDESDYYCALWYSNLWVFGGGTKLTVL
notes: as for B1
Turning to B2, the binding result with cynomolgus CD3 [1] is on record as “binds”.

B3: IgG1-CD3-LFLEDA (antibody, V domains shown)
VH: EVKLLESGGGLVQPKGSLKLSCAASGFTFNTYAMNWVRQAPGKGLEWVARIRSKYNNYATYYADSVKDRFTISRDDSQSILYLQMNNLKTEDTAMYYCVRHGNFGNSYVSWFAYWGQGTLVTVSA
VL: QAVVTQESALTTSPGETVTLTCRSSTGAVTTSNYANWVQEKPDHLFTGLIGGTNKRAPGVPARFSGSLIGDKAALTITGAQTEDEAIYFCALWYSNLWVFGGGTKLTVL
notes: also called chimeric, parental CD3 antibody
In the case of B3, the binding result with cynomolgus CD3 [1] was “binds”.

B4: bsIgG1-huCD3-H4L3×HER2-LFLEDA (bispecific antibody, V domains shown)
VH 1: EVKLVESGGGLVKPGRSLRLSCAASGFTFNTYAMNWVRQAPGKGLEWVARIRSKYNNYATYYADSVKDRFTISRDDSKSILYLQMNSLKTEDTAMYYCVRHGNFGNSYVSWFAYWGQGTMVTVSS
VL 1: QAVVTQEPSFSVSPGGTVTLTCRSSTGAVTTSNYANWVQQTPGQAFRGLIGGTNKRAPGVPARFSGSILGNKAALTITGAQADDESDYYCALWYSNLWVFGGGTKLTVL
VH 2: QVQLVQSGAEVKKPGASVKVSCKASGYTFTNYGISWVRQAPGQGLEWMGWLSAYSGNTIYAQKLQGRVTMTTDTSTTTAYMELRSLRSDDTAVYYCARDRIVVRPDYFDYWGQGTLVTVSS
VL 2: EIVLTQSPATLSLSPGERATLSCRASQSVSSYLAWYQQKPGQAPRLLIYDASNRATGIPARFSGSGSGTDFTLTISSLEPEDFAVYYCQQRSNWPRTFGQGTKVEIK
notes: LFLEDA = L234F/L235E/D265A
Take B4: in the assay with cynomolgus CD3 [2], the binding result is on record as “binds”.

B5: IgG1-huCD3-H1L2 (antibody, V domains shown)
VH: EVKLVESGGGLVQPGGSLRLSCAASGFTFNTYAMNWVRQAPGKGLEWVARIRSKYNNYATYYADSVKDRFTISRDDSKSSLYLQMNNLKTEDTAMYYCVRHGNFGNSYVSWFAYWGQGTLVTVSS
VL: QAVVTQEPSFSVSPGGTVTLTCRSSTGAVTTSNYANWVQQTPGQAFRGLIGGTNKRAPGVPARFSGSILGNKAALTITGAQADDESIYFCALWYSNLWVFGGGTKLTVL
notes: as for B1
Take B5: the binding result with cynomolgus CD3 [1] is recorded as “binds”.

B6: IgG1-huCD3-H1L3-LFLEDA (antibody, V domains shown)
VH: EVKLVESGGGLVQPGGSLRLSCAASGFTFNTYAMNWVRQAPGKGLEWVARIRSKYNNYATYYADSVKDRFTISRDDSKSSLYLQMNNLKTEDTAMYYCVRHGNFGNSYVSWFAYWGQGTLVTVSS
VL: QAVVTQEPSFSVSPGGTVTLTCRSSTGAVTTSNYANWVQQTPGQAFRGLIGGTNKRAPGVPARFSGSILGNKAALTITGAQADDESDYYCALWYSNLWVFGGGTKLTVL
Take B6: the binding result with cynomolgus CD3 [3] is listed as “binds”.

B7: IgG1-huCD3-H4L1 (antibody, V domains shown)
VH: EVKLVESGGGLVKPGRSLRLSCAASGFTFNTYAMNWVRQAPGKGLEWVARIRSKYNNYATYYADSVKDRFTISRDDSKSILYLQMNSLKTEDTAMYYCVRHGNFGNSYVSWFAYWGQGTMVTVSS
VL: not shown
notes: as for B1
As to B7, the binding result with cynomolgus CD3 [1] is reported as “binds”.

B8: IgG1-huCD3-H4L1-LFLEDA (antibody, V domains shown)
VH: EVKLVESGGGLVKPGRSLRLSCAASGFTFNTYAMNWVRQAPGKGLEWVARIRSKYNNYATYYADSVKDRFTISRDDSKSILYLQMNSLKTEDTAMYYCVRHGNFGNSYVSWFAYWGQGTMVTVSS
VL: not shown
B8: in the assay with cynomolgus CD3 [3], the binding result is recorded as “binds”.

B9: IgG1-huCD3-H1L1-LFLEDA (antibody, V domains shown)
VH: EVKLVESGGGLVQPGGSLRLSCAASGFTFNTYAMNWVRQAPGKGLEWVARIRSKYNNYATYYADSVKDRFTISRDDSKSSLYLQMNNLKTEDTAMYYCVRHGNFGNSYVSWFAYWGQGTLVTVSS
VL: not shown
notes: also called IgG1-3huCD3-H1L1-LFLEDA; wild type IgG1-huCD3-H1L1-LFLEDA
Regarding B9, the binding result with cynomolgus CD3 [3] is on record as “binds”.

B10: bsIgG1-huCD3-H1L3×HER2-LFLEDA (bispecific antibody, V domains shown)
VH 1: EVKLVESGGGLVQPGGSLRLSCAASGFTFNTYAMNWVRQAPGKGLEWVARIRSKYNNYATYYADSVKDRFTISRDDSKSSLYLQMNNLKTEDTAMYYCVRHGNFGNSYVSWFAYWGQGTLVTVSS
VL 1: QAVVTQEPSFSVSPGGTVTLTCRSSTGAVTTSNYANWVQQTPGQAFRGLIGGTNKRAPGVPARFSGSILGNKAALTITGAQADDESDYYCALWYSNLWVFGGGTKLTVL
VH 2: QVQLVQSGAEVKKPGASVKVSCKASGYTFTNYGISWVRQAPGQGLEWMGWLSAYSGNTIYAQKLQGRVTMTTDTSTTTAYMELRSLRSDDTAVYYCARDRIVVRPDYFDYWGQGTLVTVSS
VL 2: EIVLTQSPATLSLSPGERATLSCRASQSVSSYLAWYQQKPGQAPRLLIYDASNRATGIPARFSGSGSGTDFTLTISSLEPEDFAVYYCQQRSNWPRTFGQGTKVEIK
notes: LFLEDA = L234F/L235E/D265A
Regarding B10, in the assay with cynomolgus CD3 [2], the binding result was “binds”.

B11: bsIgG1-huCD3-H1L1×HER2-LFLEDA (bispecific antibody, V domains shown)
VH 1: EVKLVESGGGLVQPGGSLRLSCAASGFTFNTYAMNWVRQAPGKGLEWVARIRSKYNNYATYYADSVKDRFTISRDDSKSSLYLQMNNLKTEDTAMYYCVRHGNFGNSYVSWFAYWGQGTLVTVSS
VL 1: not shown
VH 2: QVQLVQSGAEVKKPGASVKVSCKASGYTFTNYGISWVRQAPGQGLEWMGWLSAYSGNTIYAQKLQGRVTMTTDTSTTTAYMELRSLRSDDTAVYYCARDRIVVRPDYFDYWGQGTLVTVSS
VL 2: EIVLTQSPATLSLSPGERATLSCRASQSVSSYLAWYQQKPGQAPRLLIYDASNRATGIPARFSGSGSGTDFTLTISSLEPEDFAVYYCQQRSNWPRTFGQGTKVEIK
notes: LFLEDA = L234F/L235E/D265A
With B11, the binding result with cynomolgus CD3 [2] is recorded as “binds”.

B12: IgG1-huCD3-H4L3-LFLEDA (antibody, V domains shown)
VH: EVKLVESGGGLVKPGRSLRLSCAASGFTFNTYAMNWVRQAPGKGLEWVARIRSKYNNYATYYADSVKDRFTISRDDSKSILYLQMNSLKTEDTAMYYCVRHGNFGNSYVSWFAYWGQGTMVTVSS
VL: QAVVTQEPSFSVSPGGTVTLTCRSSTGAVTTSNYANWVQQTPGQAFRGLIGGTNKRAPGVPARFSGSILGNKAALTITGAQADDESDYYCALWYSNLWVFGGGTKLTVL
As for B12, the binding result with cynomolgus CD3 [3] was “binds”.

B13: IgG1-huCD3-H3L1-LFLEDA (antibody, V domains shown)
VH: EVKLVESGGGLVKPGRSLRLSCAASGFTFNTYAMNWVRQAPGKGLEWVARIRSKYNNYATYYADSVKDRFTISRDDSKSILYLQMNSLKTEDTAMYYCVRHGNFGNSYVSWFAYWGQGTLVTVSS
VL: not shown
As to B13, the binding result in the assay with cynomolgus CD3 [1] is recorded as “binds”.

B14: IgG1-huCD3-H1L3 (antibody, V domains shown)
VH: EVKLVESGGGLVQPGGSLRLSCAASGFTFNTYAMNWVRQAPGKGLEWVARIRSKYNNYATYYADSVKDRFTISRDDSKSSLYLQMNNLKTEDTAMYYCVRHGNFGNSYVSWFAYWGQGTLVTVSS
VL: QAVVTQEPSFSVSPGGTVTLTCRSSTGAVTTSNYANWVQQTPGQAFRGLIGGTNKRAPGVPARFSGSILGNKAALTITGAQADDESDYYCALWYSNLWVFGGGTKLTVL
notes: as for B1
B14: in the assay with cynomolgus CD3 [1], the binding result is recorded as “binds”.

B15: IgG1-huCD3-H3L3-LFLEDA (antibody, V domains shown)
VH: EVKLVESGGGLVKPGRSLRLSCAASGFTFNTYAMNWVRQAPGKGLEWVARIRSKYNNYATYYADSVKDRFTISRDDSKSILYLQMNSLKTEDTAMYYCVRHGNFGNSYVSWFAYWGQGTLVTVSS
VL: QAVVTQEPSFSVSPGGTVTLTCRSSTGAVTTSNYANWVQQTPGQAFRGLIGGTNKRAPGVPARFSGSILGNKAALTITGAQADDESDYYCALWYSNLWVFGGGTKLTVL
With B15, the binding result with cynomolgus CD3 [3] is on record as “binds”.

B16: bsIgG1-huCD3-H3L3×HER2-LFLEDA (bispecific antibody, V domains shown)
VH 1: EVKLVESGGGLVKPGRSLRLSCAASGFTFNTYAMNWVRQAPGKGLEWVARIRSKYNNYATYYADSVKDRFTISRDDSKSILYLQMNSLKTEDTAMYYCVRHGNFGNSYVSWFAYWGQGTLVTVSS
VL 1: QAVVTQEPSFSVSPGGTVTLTCRSSTGAVTTSNYANWVQQTPGQAFRGLIGGTNKRAPGVPARFSGSILGNKAALTITGAQADDESDYYCALWYSNLWVFGGGTKLTVL
VH 2: QVQLVQSGAEVKKPGASVKVSCKASGYTFTNYGISWVRQAPGQGLEWMGWLSAYSGNTIYAQKLQGRVTMTTDTSTTTAYMELRSLRSDDTAVYYCARDRIVVRPDYFDYWGQGTLVTVSS
VL 2: EIVLTQSPATLSLSPGERATLSCRASQSVSSYLAWYQQKPGQAPRLLIYDASNRATGIPARFSGSGSGTDFTLTISSLEPEDFAVYYCQQRSNWPRTFGQGTKVEIK
notes: LFLEDA = L234F/L235E/D265A
Take B16: the binding result with cynomolgus CD3 [2] is recorded as “binds”.

B17: bsIgG1-huCD3-H4L1×HER2-LFLEDA (bispecific antibody, V domains shown)
VH 1: EVKLVESGGGLVKPGRSLRLSCAASGFTFNTYAMNWVRQAPGKGLEWVARIRSKYNNYATYYADSVKDRFTISRDDSKSILYLQMNSLKTEDTAMYYCVRHGNFGNSYVSWFAYWGQGTMVTVSS
VL 1: not shown
VH 2: QVQLVQSGAEVKKPGASVKVSCKASGYTFTNYGISWVRQAPGQGLEWMGWLSAYSGNTIYAQKLQGRVTMTTDTSTTTAYMELRSLRSDDTAVYYCARDRIVVRPDYFDYWGQGTLVTVSS
VL 2: EIVLTQSPATLSLSPGERATLSCRASQSVSSYLAWYQQKPGQAPRLLIYDASNRATGIPARFSGSGSGTDFTLTISSLEPEDFAVYYCQQRSNWPRTFGQGTKVEIK
notes: LFLEDA = L234F/L235E/D265A
Take B17: in the assay with cynomolgus CD3 [2], the binding result is listed as “binds”.

The values are drawn from patent US20160333095A1 (Genmab, published 2016).
